# Assay results published in paper PMC5812316 (Biophysics and Physicobiology, 2018).
# Target: the molecule itself
# Test: SEC
row,Protein,stoichiometry N
1,Photozipper variant E159K (domain or fragment) GSISSELTEAQKVERRERNREHAKRSRVRKKFLLESLQQSVNELNHKNNSLKESIREHLGPRGDSLIAQSSPEADTLLTDNPSKANRILEDPDYSLVKALQMAQQNFVITDASLPDNPIVYASRGFLTLTGYSLDQILGRNCRFLQGPETDPRAVDKIRNAITKGVDTSVCLLNYRQDGTTFWNLFFVAGLRDSKGNIVNYVGVQSKVSEDYAKLLVNEQNIEYKGVRTSNMLRRK,2
2,Photozipper variant E159R/K164R (domain or fragment) GSISSELTEAQKVERRERNREHAKRSRVRKKFLLESLQQSVNELNHRNNSLRESIREHLGPRGDSLIAQSSPEADTLLTDNPSKANRILEDPDYSLVKALQMAQQNFVITDASLPDNPIVYASRGFLTLTGYSLDQILGRNCRFLQGPETDPRAVDKIRNAITKGVDTSVCLLNYRQDGTTFWNLFFVAGLRDSKGNIVNYVGVQSKVSEDYAKLLVNEQNIEYKGVRTSNMLRRK,2
3,Photozipper variant K164E (domain or fragment) GSISSELTEAQKVERRERNREHAKRSRVRKKFLLESLQQSVNELNHENNSLEESIREHLGPRGDSLIAQSSPEADTLLTDNPSKANRILEDPDYSLVKALQMAQQNFVITDASLPDNPIVYASRGFLTLTGYSLDQILGRNCRFLQGPETDPRAVDKIRNAITKGVDTSVCLLNYRQDGTTFWNLFFVAGLRDSKGNIVNYVGVQSKVSEDYAKLLVNEQNIEYKGVRTSNMLRRK,2
